The text below walks through data of IntAct's records for PubMed 15328537.

First the molecules themselves.
B1: Emerin (Homo sapiens), P50402 (parent)
chain: MDNYADLSDTELTTLLRRYNIPHGPVVGSTRRLYEKKIFEYETQRRRLSPPSSSAASSYSFSDLNSTRGDADMYDLPKKEDALLYQSKGYNDDYYEESYFTTRTYGEPESAGPSRAVRQSVTSFPDADAFHHQVHDDDLLSSSEEECKDRERPMYGRDSAYQSITHYRPVSASRSSLDLSYYPTSSSTSFMSSSSSSSSWLTRRAIRPENRAPGAGLGQDRQVPLWGQLLLFLVFVIVLFFIYHFMQAEEGNPF

In the experiment the parent is B1. As to conditions: with acts_rabit ACTA1, P68135.
Consider MDNYADLSDTELTTLLRRYNIPHGPVVGSTRRLYEKKIFEYETQRRRLSPPSSSAASSYSFSDLNSTRGDADMYDLPKKEDALLYQSKGYNDDYYEESYFTTRTYGEPESAGPSRAVRQSVTSFPDADAFHHHVHDDDLLSSSEEECKDRERPMYGRDSAYQSITHYRPVSASRSSLDLSYYPTSSSTSFMSSSSSSSSWLTRRAIRPENRAPGAGLGQDRQVPLWGQLLLFLVFVIVLFFIYHFMQAEEGNPF [Q133H], for which the “effect of a mutation on the interaction” value is “disrupting interaction”.
